According to patent publication US20160348147A1, “SYSTEMS AND DEVICES FOR PROTEASE DETECTION BASED ON ENGINEERED POLYMERS AND BIOPOLYMERS AND METHODS OF USE” (DUKE UNIVERSITY, priority 2014, published 2016):

Legend:
[1] = biological target: T1, MMP-1 (Homo sapiens, UniProt P03956); assay: Mass spectrometry of ELP-substrate fusion before and after incubation with MMP-1; format: biochemical; settings: 100 μM polypeptide, 100 ng/mL MMP-1, 2 h at 25° C., proteolysis buffer
T1 construct: Human MMP-1 catalytic domain (recombinant, produced in E. coli, 19.9 kDa, >95% purity); purchased Enzo Life Sciences (Farmingdale, N.Y.); host or cells: E. coli
T1 sequence (P03956 100-269 limits assumed): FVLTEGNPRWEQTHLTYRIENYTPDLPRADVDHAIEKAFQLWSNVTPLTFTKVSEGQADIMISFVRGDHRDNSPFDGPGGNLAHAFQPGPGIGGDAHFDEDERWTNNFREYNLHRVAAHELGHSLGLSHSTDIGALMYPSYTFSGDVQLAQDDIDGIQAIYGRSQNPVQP
Description: We confirmed the purity and molecular weight of the purified peptides by electrophoresis (10-20% gradient […] SDS-PAGE, Thermo Scientific, CA) and by matrix-assisted laser desorption/ionization mass spectrometry. Mass spectrometry samples were prepared by mixing the enzymatic reaction product with sinapinic acid in 1:10 ratio. 1 μL of the sample/matrix mixture was then loaded on the grid and the measurements were performed on a Voyager-DE-Pro instrument (Applied Biosystems, Germany). To determine the concentration of the ELP-substrate fusion solutions we used a calculated extinction coefficient (Gill, S. C. & Vonhippel, P. H. Analytical Biochemistry 1989, 182, 319-326) or lyophilized the polypeptide solution. We studied the thermal behavior of the ELP-substrate fusion constructs in both proteolysis buffer (see below) and diluted human serum in the presence and absence of MMP-1 using optical turbidimetry on a temperature-programmed UV-vis spectrometer (Cary 300, Agilent Technologies). To characterize the size of the micelles and aggregates, we used single angle dynamic light scattering (DLS; DynaPro, Protein Solution).
We used mass spectrometry to examine the cleavage of the MMP-1 substrate peptide in the ELP-substrate fusion by measuring the molecular weight of the polypeptides prior to, and after incubation with MMP-1. […]

[2] = tested on: endogenous MMP-1 in human serum; assay: Time-dependent aggregation (OD350) of ELP-substrate fusion in diluted human serum (40%); format: biochemical; settings: diluted serum with no added MMP-1, 37° C.
Description: We performed the proteolysis reactions either in 100% protease buffer or in a mixture of human serum and buffer (40% (v/v) serum, 50% (v/v) buffer, 10% (v/v) ELP-substrate solution in water). The proteolysis buffer (100 mM HEPES, CaCl2 20 mM, MgCl2 1.0 mM, ZnCl2 100 μM, NaCl 0.5 M for diluted serum and 0.1 M for buffer solutions) was made experimentally in our lab based on previously published assays (Patterson, J. & Hubbell, J. A. Biomaterials 2010, 31, 7836-7845; Turk, B. E. et al., Nature Biotechnology 2001, 19, 661-667; Lowe, S. B. et al., Acs Nano 2012, 6, 851-857). We investigated proteolysis in two ways. In the first approach, we incubated solutions of the ELP-substrate fusion with MMP-1 (100 ng/mL) for 12 h at 40° C. temperature and measured the optical density at 350 nm (OD350) before and after the incubation. In the second approach, we incubated the ELP-substrate fusion with varying concentrations of MMP-1 (0.02 ng/mL to 200 ng/mL) in buffer or in diluted human serum, at 40° C. or 37° C. respectively, a temperature that is above the CMT of the ELP, and monitored the changes OD350 as a function of time (kinetic study). For the kinetic studies, we added the enzyme to the solution after the optical density of the solution reached a steady-state value and repeated the experiments at least three times. […]

M(GVGVP)60GDGQVPMSMRGGDDEGQQDDEEGY (MGVGVPGDGQVPMSMRGGDDEGQQDDEEGY) [ELP-substrate fusion, recombinant polypeptide: ELP fused to MMP-1 substrate and charged hydrophilic peptide]
cleavage of the MMP-1 substrate peptide (mass spectrometry) [1]: most of the 1.8 kDa MMP-sensitive peptide is cleaved off
aggregation time [2]: ~350 min
